Columns and labels:
[1] = target: T1, human LAG-3-6*His tag recombinant fusion protein (human, UniProt P18627 23-450, biotin-labelled in panning and in Example 9); assay: ELISA as in Example 4 (antibody coated, human LAG-3-6*His titrated)
T1 construct: Bought protein; also called hLAG-3-6*his tag recombinant protein; human LAG-3-his tag recombinant fusion protein
T1 sequence: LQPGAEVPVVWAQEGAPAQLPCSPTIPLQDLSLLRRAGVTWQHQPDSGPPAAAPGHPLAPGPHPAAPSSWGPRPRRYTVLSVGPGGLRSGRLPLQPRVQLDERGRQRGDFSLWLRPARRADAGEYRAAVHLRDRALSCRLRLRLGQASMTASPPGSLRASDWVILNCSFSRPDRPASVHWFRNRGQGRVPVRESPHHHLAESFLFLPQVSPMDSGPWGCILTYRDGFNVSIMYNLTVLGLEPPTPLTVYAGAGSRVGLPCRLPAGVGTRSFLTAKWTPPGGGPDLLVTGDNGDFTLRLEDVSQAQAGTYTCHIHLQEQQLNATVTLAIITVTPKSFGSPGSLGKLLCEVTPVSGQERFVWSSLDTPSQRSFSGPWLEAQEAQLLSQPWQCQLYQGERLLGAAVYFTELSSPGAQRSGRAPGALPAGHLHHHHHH

[2] = target: T2, human LAG-3 on the cell surface (human, UniProt P18627 23-525); assay: flow cytometry on cells expressing the human LAG-3, PE anti-human IgG; N = 1
T2 construct: whole, on cells; also called cells expressing the human LAG-3
T2 sequence (looked up): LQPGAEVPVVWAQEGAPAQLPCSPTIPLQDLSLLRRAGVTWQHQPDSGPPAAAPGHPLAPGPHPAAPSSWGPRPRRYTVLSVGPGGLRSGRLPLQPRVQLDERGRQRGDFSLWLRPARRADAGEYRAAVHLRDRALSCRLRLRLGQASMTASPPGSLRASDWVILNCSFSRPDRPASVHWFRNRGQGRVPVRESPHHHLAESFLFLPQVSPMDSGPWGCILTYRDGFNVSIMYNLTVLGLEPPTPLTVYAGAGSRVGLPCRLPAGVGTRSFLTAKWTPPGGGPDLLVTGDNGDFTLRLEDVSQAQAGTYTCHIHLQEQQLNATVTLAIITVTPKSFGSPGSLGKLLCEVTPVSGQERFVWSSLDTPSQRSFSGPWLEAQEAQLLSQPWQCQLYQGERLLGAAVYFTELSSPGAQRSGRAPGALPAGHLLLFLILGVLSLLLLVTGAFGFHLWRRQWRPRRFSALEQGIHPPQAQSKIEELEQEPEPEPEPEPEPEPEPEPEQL

[3] = target: T2, human LAG-3 on the cell surface; assay: flow cytometry on cells expressing the human LAG-3, PE anti-human IgG; N = 2
[4] = target: T2, human LAG-3 on the cell surface; assay: cell-based or functional assay
[5] = target: T2, human LAG-3 on the cell surface; assay: flow cytometry on cells expressing the human LAG-3, PE anti-human IgG; N = 4
[6] = target: T1, human LAG-3-6*His tag recombinant …; assay: ELISA as in Example 4 (antibody coated, human LAG-3-6*His titrated); N = 2
[7] = target: T1, human LAG-3-6*His tag recombinant …; assay: ELISA as in Example 4 (antibody coated, human LAG-3-6*His titrated); N = 3

Binder | EC50 [1] | EC50 [2] | EC50 [3] | EC50, ability to activate T cells in vitro (LAG3/NFAT Reporter-Jurkat) [4] | EC50 [5] | EC50 [6] | EC50 [7]
MV705-3-VH-DD + DE-IgG4 (antibody, V domains shown, human IgG4 S228P constant region, MV705-3 lambda light chain; also called 13365; 13365 (DD + DE)) VH: EVQLLESGAEVKKPGASVKVSCKASGYTFTSYGISWVRQAPGQGLEWMGWISAYNGNTNYAQKLQGRVTMTTDTSTSTAYMELRSLRSDDTAVYYCARDGWWELLRPDEAFDIWGQGTTVTVSS VL: QLVLTQSPSVSVSPGQTASITCSGDKLGDKYAYWYQQKPGQAPVLVIYYDSDRPSGIPERFSGSNSGNTATLTISRVEAGDEADYYCQVWDSSSDQVVFGGGTQLTVLG | 1.29 µg/mL | > 10 µg/mL |  |  |  |  | 
MV705-3-VH-ED + DE-IgG4 (antibody, V domains shown, human IgG4 S228P constant region, MV705-3 lambda light chain; also called 13564; 13564 (ED + DE)) VH: EVQLLESGAEVKKPGASVKVSCKASGYTFTSYGISWVRQAPGQGLEWMGWISAYNGNTNYAQKLQGRVTMTTDTSTSTAYMELRSLRSEDTAVYYCARDGWWELLRPDEAFDIWGQGTTVTVSS VL: QLVLTQSPSVSVSPGQTASITCSGDKLGDKYAYWYQQKPGQAPVLVIYYDSDRPSGIPERFSGSNSGNTATLTISRVEAGDEADYYCQVWDSSSDQVVFGGGTQLTVLG | 2.43 µg/mL | > 0.01 µg/mL |  |  |  |  | 
MV705-3-VH-DE + DE-IgG4 (antibody, V domains shown, human IgG4 S228P constant region, MV705-3 lambda light chain; also called 13565; 13565 (DE + DE)) VH: EVQLLESGAEVKKPGASVKVSCKASGYTFTSYGISWVRQAPGQGLEWMGWISAYNGNTNYAQKLQGRVTMTTDTSTSTAYMELRSLRSDETAVYYCARDGWWELLRPDEAFDIWGQGTTVTVSS VL: QLVLTQSPSVSVSPGQTASITCSGDKLGDKYAYWYQQKPGQAPVLVIYYDSDRPSGIPERFSGSNSGNTATLTISRVEAGDEADYYCQVWDSSSDQVVFGGGTQLTVLG | 3.13 µg/mL |  | > 0.01 µg/mL |  |  |  | 
MV705-3-VH-DD + ED-IgG4 (antibody, V domains shown, human IgG4 S228P constant region, MV705-3 lambda light chain; also called 13386; 13386 (DD + ED)) VH: EVQLLESGAEVKKPGASVKVSCKASGYTFTSYGISWVRQAPGQGLEWMGWISAYNGNTNYAQKLQGRVTMTTDTSTSTAYMELRSLRSDDTAVYYCARDGWWELLRPEDAFDIWGQGTTVTVSS VL: QLVLTQSPSVSVSPGQTASITCSGDKLGDKYAYWYQQKPGQAPVLVIYYDSDRPSGIPERFSGSNSGNTATLTISRVEAGDEADYYCQVWDSSSDQVVFGGGTQLTVLG | 0.15 µg/mL |  |  | > 30 µg/mL | 0.0059 µg/mL |  | 
MV705-3-VH-ED + ED-IgG4 (antibody, V domains shown, human IgG4 S228P constant region, MV705-3 lambda light chain; also called 13616; 13616 (ED + ED)) VH: EVQLLESGAEVKKPGASVKVSCKASGYTFTSYGISWVRQAPGQGLEWMGWISAYNGNTNYAQKLQGRVTMTTDTSTSTAYMELRSLRSEDTAVYYCARDGWWELLRPEDAFDIWGQGTTVTVSS VL: QLVLTQSPSVSVSPGQTASITCSGDKLGDKYAYWYQQKPGQAPVLVIYYDSDRPSGIPERFSGSNSGNTATLTISRVEAGDEADYYCQVWDSSSDQVVFGGGTQLTVLG |  |  | 0.0051 µg/mL | > 30 µg/mL |  | 0.21 µg/mL | 
MV705-3-VH-ED + DD-IgG4 (antibody, V domains shown, human IgG4 S228P constant region, MV705-3 lambda light chain; also called 13381; 13381 (ED + DD)) VH: EVQLLESGAEVKKPGASVKVSCKASGYTFTSYGISWVRQAPGQGLEWMGWISAYNGNTNYAQKLQGRVTMTTDTSTSTAYMELRSLRSEDTAVYYCARDGWWELLRPDDAFDIWGQGTTVTVSS VL: QLVLTQSPSVSVSPGQTASITCSGDKLGDKYAYWYQQKPGQAPVLVIYYDSDRPSGIPERFSGSNSGNTATLTISRVEAGDEADYYCQVWDSSSDQVVFGGGTQLTVLG |  |  |  | 0.1 µg/mL | 0.0022 µg/mL |  | 0.044 µg/mL
MV705-3-VH-DE + DD-IgG4 (antibody, V domains shown, human IgG4 S228P constant region, MV705-3 lambda light chain; also called 13380; 13380 (DE + DD)) VH: EVQLLESGAEVKKPGASVKVSCKASGYTFTSYGISWVRQAPGQGLEWMGWISAYNGNTNYAQKLQGRVTMTTDTSTSTAYMELRSLRSDETAVYYCARDGWWELLRPDDAFDIWGQGTTVTVSS VL: QLVLTQSPSVSVSPGQTASITCSGDKLGDKYAYWYQQKPGQAPVLVIYYDSDRPSGIPERFSGSNSGNTATLTISRVEAGDEADYYCQVWDSSSDQVVFGGGTQLTVLG |  |  |  | 0.05 µg/mL | 0.0018 µg/mL |  | 0.044 µg/mL
MV705-3-VH-DE + ED-IgG4 (antibody, V domains shown, human IgG4 S228P constant region, MV705-3 lambda light chain; also called 13563; 13563 (DE + ED)) VH: EVQLLESGAEVKKPGASVKVSCKASGYTFTSYGISWVRQAPGQGLEWMGWISAYNGNTNYAQKLQGRVTMTTDTSTSTAYMELRSLRSDETAVYYCARDGWWELLRPEDAFDIWGQGTTVTVSS VL: QLVLTQSPSVSVSPGQTASITCSGDKLGDKYAYWYQQKPGQAPVLVIYYDSDRPSGIPERFSGSNSGNTATLTISRVEAGDEADYYCQVWDSSSDQVVFGGGTQLTVLG | 0.21 µg/mL |  |  | > 30 µg/mL | 0.0047 µg/mL |  | 
